This note sets out measurements from patent US11312781B2, “Antigen binding molecules that bind LIGHT” (Capella Bioscience Ltd., priority 2018, dated 2022).

Numbering of substitutions follows the chain as printed.

Experiment [1] concerns the target T1, native trimeric LIGHT (Homo sapiens, UniProt O43557, K214E).
T1 construct: amino acids 74-240 LIGHT (R&D Systems, 664-LI-025); purchased R&D Systems 664-LI-025
Description: Binding ratio of mAbs bound to LIGHT by native mass spectrometry. The conditions noted are these: LIGHT incubated 1:5 molar ratio (protein:antibody). The protocol: The LIGHT protein (R&D Systems 664-LI-025) was solubilised in PBS buffer at a final concentration of 4 μM, whereas the mAbs were maintained at 20 μM in PBS. The samples were buffer exchanged into ammonium acetate pH 7.4 at different concentrations via a column with a cut-off of 40 kDa prior to mass spectrometry optimisation. […] Samples were stored at 4° C. and were used within one week. The antibodies were diluted to 1 μM prior to MSanalysis. For complex formation the LIGHT protein was incubated with each antibody separately in 1:5 ratio on ice and native mass measurements were performed 30 min after incubation.
Nano electrospray ionization measurements were performed using a Q Exactive hybrid quadrupole-Orbitrap mass spectrometer (Thermo Fisher Scientific) modified for the transmission and detection of high m/z ions. […] Elevated pressure was applied in the front optics and mass spectra were recorded at optimized collision energy. […] Data were analysed with Xcaliber software and deconvoluted manually.
Native mass spectroscopy was utilised to determine the ratio of mAb bound to native trimeric LIGHT. The measured mass of 3B04 (IgG4) was 147256±0.7 Da and the F19 anti-LIGHT mAb, (IgG4 mAb from EP2292663) was 147364±6.6 Da. […] Two major populations of the light protein were recorded with measured masses of 68 kDa and 71 kDa. […]

Experiment [2] has as its target T2, wild type and mutated membrane LIGHT (Homo sapiens, UniProt O43557, T191A).
T2 construct: The full length LIGHT gene was synthesized by GeneArt (ThermoFisher Scientific); expressed in transfected cells; host or cells: HEK293FF, transient, pcDNA 3.1(+)
The experiment is described as follows: Alanine scanning mutagenesis of membrane LIGHT and flow cytometry (HEK293FF cells). The conditions noted are these: aa mutation T191A, SEQ ID NO. 138. It counts as binding. From the text: (§1) The full length LIGHT gene was synthesized by GeneArt (ThermoFisher Scientific) and cloned into the mammalian expression vector pcDNA 3.1(+). The following Ala mutations were introduced into the LIGHT gene: 30 single amino acid alanine substitutions from F57A to E86A; 2 single amino acid alanine substitutions; G188A, R189A; one serine substitution, A190S; 17 single amino acid alanine substitutions; T191A to V207A and 10 four amino acid alanine substitutions, 60-63, 64-67, 68-71, 72-75, 76-79, 80-83, 84-87, 88-91, 92-95 and 96-99. Constructs were reconstituted according to manufacture instructions, using DEPC-treated and sterile filtered water. Competent TOP10 E. coli cells were transformed with 100 ng of each construct and a single colony from each construct was picked and used to inoculate 10 ml of LB/carb100/glu2% medium and grown overnight at 37° C., 200 rpm. The extraction of the construct DNA was performed using the Qiagen QIAprep Spin Miniprep Kit (250) and the concentration was determined by measuring the O.D. at 260 nm in a spectrophotometer.
(§2) HEK293FF cells were cultured in Freestyle™293 expression medium (ThermoFisher scientific cat. no. 12338018) supplemented with 2 mM L-Glutamine. The day of transfection the cells were seeded in a 24-well plate at 0.6×10^6 cells/well. Lipofectamine 2000 (ThermoFisher scientific), 3 μl, was mixed with 50 μl OptiMEM medium (GIBCO) and then added to 50 μl Opti-MEM medium containing 3 ug plasmid DNA and incubated for 20 min at RT to form DNA-Lipofectamine 2000 complexes which were then added to the HEK293FF cells and incubated at 37° C., 5% CO2 for 24 hours. For each construct, in duplicate, 0.60×10^6 cells/well were used in a 96 well round bottom plate. Cells were centrifuged for 3 minutes at 300×g at 4° C., the supernatant discarded and the cells washed with 150 μl FACS buffer (0.5% FBS in phosphate buffered saline). This process was repeated 3 times. For each construct, […] cells/well were incubated with anti-LIGHT antibodies at the EC50 concentration and with positive controls of anti-LIGHT mAb MAB664 (R&D Systems), mAb F19 (EP2292663) or LTBR-Fc (R&D Systems), in a final volume of 50 μl/well for 30 min at 4° C., with shaking. The wells were washed 3 times as above and 50 μl/well of goat anti-human IgG FITC (1:1500 dilution in FACS buffer, SIGMA F9512-2ML) or goat anti-mouse APC (1/500 dilution in FACS buffer, BDBioscience 550826), as appropriate, was added to the wells and incubated for 30 min at 4° C. protected from the light, with shaking. The cells were then washed as above, resuspended in 100 μl of FACS buffer and binding of the antibodies to the constructs was measured using flow cytometry and a total of 10,000 cells were acquired for each sample. Controls of buffer and secondary antibody only as well as HEK293FF non transfected cells were also used.
(§3) All of the mAbs of this invention show a similar profile in that their epitope is located at amino acids 188-197 of LIGHT. […] The epitope of the mAbs of this invention defined by alanine scanning mutagenesis are residues 188-197 of LIGHT. This is visually depicted in FIG. 8 utilising a 3D visualisation of the LIGHT trimer from the crystal structure of LIGHT from Liu et al. (Structure 22: 1252-62; 2014). This would result in the mAbs binding to the “tip” of the LIGHT trimer and explaining the 1:1 binding. The impact of this epitope would result in […] less dosing of mAb 3B04 being required to neutralise membrane LIGHT compared to, for example, mAbs F19 and F23 (of EP2292663) which bind both soluble and membrane LIGHT equally and bind LIGHT in the ratio 3:1.
In general terms: In flow cytometry, cells or beads pass a laser one at a time.

In experiment [3] the target is T3, wild type and mutated membrane LIGHT (Homo sapiens, UniProt O43557, V196A).
T3 construct: The full length LIGHT gene was synthesized by GeneArt (ThermoFisher Scientific); expressed in transfected cells; host or cells: HEK293FF, transient, pcDNA 3.1(+)
T3 sequence (O43557 whole entry V196A): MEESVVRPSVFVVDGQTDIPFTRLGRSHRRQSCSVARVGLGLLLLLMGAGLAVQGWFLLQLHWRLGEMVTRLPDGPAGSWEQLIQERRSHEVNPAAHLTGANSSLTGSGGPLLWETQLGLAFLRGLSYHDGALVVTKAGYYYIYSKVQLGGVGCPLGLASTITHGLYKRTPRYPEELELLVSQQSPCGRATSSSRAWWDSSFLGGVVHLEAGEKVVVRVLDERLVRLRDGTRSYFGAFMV
Described as above. The experiment is classed as binding. The conditions noted are these: aa mutation V196A, SEQ ID NO. 143.
From the text: as §1, §2, §3

Experiment [4] deals with T4, wild type and mutated membrane LIGHT (Homo sapiens, UniProt O43557, W198A).
T4 construct: The full length LIGHT gene was synthesized by GeneArt (ThermoFisher Scientific); expressed in transfected cells; host or cells: HEK293FF, transient, pcDNA 3.1(+)
T4 sequence (O43557 whole entry W198A): as the sequence (O43557 whole entry V196A) above, with A196V, W198A counted along it
The experiment is described as above. It counts as binding. The conditions noted are these: aa mutation W198A, SEQ ID NO. 145.
From the text: as §1, §2, §3

T1 sequence (O43557 74-240 K214E): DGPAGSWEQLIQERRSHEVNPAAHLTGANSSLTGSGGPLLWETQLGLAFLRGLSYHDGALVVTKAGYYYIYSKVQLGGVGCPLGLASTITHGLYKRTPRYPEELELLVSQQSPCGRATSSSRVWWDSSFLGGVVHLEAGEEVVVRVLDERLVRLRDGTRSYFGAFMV
T2 sequence (O43557 whole entry T191A): as the sequence (O43557 whole entry V196A) above, with T191A, A196V counted along it

B1: 3B04: parental mouse anti-membrane LIGHT antibody, VL SEQ ID NO 1, VH SEQ ID NO 5; tested as chimeric human IgG4 mAb (antibody, listed as Homo sapiens, V domains shown)
VH: QVQLQQPGAELVRPGASVTLSCKASGYTFTDYEMHWVKQTPVHGLEWIGEIDPETGDTAYSQKFKGKATLTADKSSSTAYMEFRSLTSEDSAVYYCSRETDYFFDYWGQGTTLTVSS
VL: DIQMTQTPASLSASVGETVTITCGASENIYGALNWYQRKQGKSPQLLIYGATNLADGMSSRFSGSGSGRQYSLKISSLHPDDFATYYCQNVLTTPWTFGGGTKLEIKR
As to B1, the “Stoichiometry of mAb bound to native trimeric LIGHT (antibody:LIGHT trimer)” value in experiment [1] is “one antibody per one LIGHT protein”.

B2: 3D12: parental mouse anti-membrane LIGHT antibody, VL SEQ ID NO 41, VH SEQ ID NO 45; tested as chimeric human IgG4 mAb (antibody, listed as Homo sapiens, V domains shown)
VH: B1 VH with G26D, Y32S, M34I, D57G, S61N, F83L
VL: B1 VL with T7S, F83V, T93S
With B2, the “Binding to membrane LIGHT construct as a percentage of the WT binding” value turned out to be 3% in experiment [2], 78% in experiment [3] and 86% in experiment [4].
